Series [1] concerns the target Drosophila melanogaster septin hexamers composed of His6-DSep1, mEGFP-DSep2, and Pnut-StrepII (Drosophila melanogaster) (UniProt P42207). Put plainly: TIRF microscopy of bundles formed in solution; mEGFP-tagged hexamers diluted from 300 mM KCl into polymerization buffer with 50 mM KCl (20 mM imidazole pH 7.4), 100, 200, 500 nM; crowded onto a neutral PC bilayer with 0.1 wt-% methylcellulose; 20°C.

For series [2], the target named is Drosophila melanogaster septin hexamers composed of His6-DSep1, DSep2, Pnut-StrepII (Drosophila melanogaster) (UniProt P42207). As to the kind of experiment: atomic force microscopy on supported lipid bilayers; 12, 24 or 60 nM hexamers for 15 min at 19°C on silica-supported bilayers of 80% PC and 20% PS in polymerization buffer; mostly fixed with 1% glutaraldehyde, also unfixed.

Series [3] concerns the molecule itself. As to the kind of experiment: scanning transmission electron microscopy (STEM) with mass-per-length mapping; septins preassembled for 1 hr at 20°C in solution at 50-500 nM, no membrane; TMV rods as mass standard.

Consider “Drosophila melanogaster septin hexamers composed of His6-DSep1, mEGFP-DSep2, and Pnut-StrepII (from UniProt P42207 1-361; P54359 1-419; P40797 1-539) (complex)”, for which the threshold concentration for polymerization in solution in series [1] was found to be 200 nM.

Consider “Drosophila melanogaster septin hexamers composed of His6-DSep1, DSep2, Pnut-StrepII (from UniProt P42207 1-361; P54359 1-419; P40797 1-539) (complex)”, for which the threshold concentration for polymerization on negatively charged membranes in series [2] is under 12 nM.

B1: Budding yeast septin octamers composed of Cdc3, Cdc10, Cdc11, and His6-Cdc12 (complex, budding yeast (S. cerevisiae))
chain 1: MSLKEEQVSIKQDPEQEERQHDQFNDVQIKQESQDHDGVDSQYTNGTQNDDSERFEAAESDVKVEPGLGMGITSSQSEKGQVLPDQPEIKFIRRQINGYVGFANLPKQWHRRSIKNGFSFNLLCVGPDGIGKTTLMKTLFNNDDIEANLVKDYEEELANDQEEEEGQGEGHENQSQEQRHKVKIKSYESVIEENGVKLNLNVIDTEGFGDFLNNDQKSWDPIIKEIDSRFDQYLDAENKINRHSINDKRIHACLYFIEPTGHYLKPLDLKFMQSVYEKCNLIPVIAKSDILTDEEILSFKKTIMNQLIQSNIELFKPPIYSNDDAENSHLSERLFSSLPYAVIGSNDIVENYSGNQVRGRSYPWGVIEVDNDNHSDFNLLKNLLIKQFMEELKERTSKILYENYRSSKLAKLGIKQDNSVFKEFDPISKQQEEKTLHEAKLAKLEIEMKTVFQQKVSEKEKKLQKSETELFARHKEMKEKLTKQLKALEDKKKQLELSINSASPNVNHSPVPTKKKGFLR
chain 2: MDPLSSVQPASYVGFDTITNQIEHRLLKKGFQFNIMVVGQSGLGKSTLINTLFASHLIDSATGDDISALPVTKTTEMKISTHTLVEDRVRLNINVIDTPGFGDFIDNSKAWEPIVKYIKEQHSQYLRKELTAQRERFITDTRVHAILYFLQPNGKELSRLDVEALKRLTEIANVIPVIGKSDTLTLDERTEFRELIQNEFEKYNFKIYPYDSEELTDEELELNRSVRSIIPFAVVGSENEIEINGETFRGRKTRWSAINVEDINQCDFVYLREFLIRTHLQDLIETTSYIHYEGFRARQLIALKENANSRSSAHMSSNAIQR
chain 3: MSGIIDASSALRKRKHLKRGITFTVMIVGQSGSGRSTFINTLCGQQVVDTSTTILLPTDTSTEIDLQLREETVELEDDEGVKIQLNIIDTPGFGDSLDNSPSFEIISDYIRHQYDEILLEESRVRRNPRFKDGRVHCCLYLINPTGHGLKEIDVEFIRQLGSLVNIIPVISKSDSLTRDELKLNKKLIMEDIDRWNLPIYNFPFDEDEISDEDYETNMYLRTLLPFAIIGSNEVYEMGGDVGTIRGRKYPWGILDVEDSSISDFVILRNALLISHLHDLKNYTHEILYERYRTEALSGESVAAESIRPNLTKLNGSSSSSTTTRRNTNPFKQSNNINNDVLNPASDMHGQSTGENNETYMTREEQIRLEEERLKAFEERVQQELLLKRQELLQREKELREIEARLEKEAKIKQEE
chain 4: MSAATATAAPVPPPVGISNLPNQRYKIVNEEGGTFTVMLCGESGLGKTTFINTLFQTVLKRADGQQHRQEPIRKTVEIDITRALLEEKHFELRVNVIDTPGFGDNVNNNKAWQPLVDFIDDQHDSYMRQEQQPYRTKKFDLRVHAVLYFIRPTGHGLKPIDIETMKRLSTRANLIPVIAKADTLTAQELQQFKSRIRQVIEAQEIRIFTPPLDADSKEDAKSGSNPDSAAVEHARQLIEAMPFAIVGSEKKFDNGQGTQVVARKYPWGLVEIENDSHCDFRKLRALLLRTYLLDLISTTQEMHYETYRRLRLEGHENTGEGNEDFTLPAIAPARKLSHNPRYKEEENALKKYFTDQVKAEEQRFRQWEQNIVNERIRLNGDLEEIQGKVKKLEEQVKSLQVKKSHLK
notes: Cdc3, budding yeast septin; Cdc10, budding yeast septin; Cdc11, budding yeast septin; Cdc12, budding yeast septin; Two copies of each chain follow from the word octamer with four named subunits; also called yeast septins; budding yeast septins; source: purified as described (Bertin et al., 2008); copies: 2 + 2 + 2 + 2
For B1, the binding result in series [3] is on record as “binds”.
